The values below are quoted from earlier work in publication PMC4289615.

The target in the series is IL-2Rβγ (intermediate-affinity IL-2 receptor) (Homo sapiens) (UniProt P14784).
Chain of UniProt P14784 (P14784 27-240, chain 1 of 2): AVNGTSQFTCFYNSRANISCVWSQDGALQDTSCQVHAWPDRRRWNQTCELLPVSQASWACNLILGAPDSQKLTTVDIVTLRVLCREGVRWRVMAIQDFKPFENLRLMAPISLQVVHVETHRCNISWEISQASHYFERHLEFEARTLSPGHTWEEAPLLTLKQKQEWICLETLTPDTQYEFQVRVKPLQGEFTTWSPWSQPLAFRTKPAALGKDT
Chain of UniProt P14784 (P31785 23-262, chain 2 of 2, further chain): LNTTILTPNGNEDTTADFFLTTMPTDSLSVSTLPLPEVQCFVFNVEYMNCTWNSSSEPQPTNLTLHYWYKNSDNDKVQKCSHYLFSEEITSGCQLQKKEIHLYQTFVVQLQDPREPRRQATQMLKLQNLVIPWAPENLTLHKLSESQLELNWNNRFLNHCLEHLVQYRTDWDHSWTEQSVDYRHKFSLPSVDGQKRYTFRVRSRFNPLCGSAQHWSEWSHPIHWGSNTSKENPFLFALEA

Chain of IL-2 (P60568 21-153): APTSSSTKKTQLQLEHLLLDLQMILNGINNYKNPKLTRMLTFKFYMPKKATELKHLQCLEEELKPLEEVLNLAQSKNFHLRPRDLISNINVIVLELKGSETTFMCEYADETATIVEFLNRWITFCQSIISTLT

Usually Kd stands for the constant that tells how readily two partners part at equilibrium. Consider IL-2 (from UniProt P60568), for which the Kd is 1 nM.
